In patent publication US20110008340A1 (published 2011):

T1: TSR5 peptide (human)
T1 construct: Synthetic peptide 'corresponding to TSR5'; also called TSR5 segment of properdin
T1 peptide: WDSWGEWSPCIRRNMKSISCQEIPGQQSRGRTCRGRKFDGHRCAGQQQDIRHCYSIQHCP

T2: TSR6 peptide (human)
T2 construct: Synthetic peptide 'corresponding to TSR6'; also called TSR6 segment of properdin
T2 peptide: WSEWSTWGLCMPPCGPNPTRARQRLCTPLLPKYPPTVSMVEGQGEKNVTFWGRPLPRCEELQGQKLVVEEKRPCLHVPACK


Key:
TSR5 peptide = target: T1, TSR5 peptide; assay: ELISA on plate-bound peptide
Experimental: (§1) Screening Assay: Microtiter plates were coated with peptide⁷¹⁻¹¹⁰. (2.0 μg/50 μl per well), TSR5 and TSR6 peptides in phosphate buffered saline (PBS) overnight at 4° C. After aspirating the peptide solutions, the wells were blocked with PBS containing 1% bovine serum albumin (BSA) for 2 hours at room temperature. Wells without peptide coating served as background controls. […] The plate was incubated at room temperature for 1-hour. The plate developed using standard ELISA methods described above.

TSR6 peptide = target: T2, TSR6 peptide; assay: ELISA on plate-bound peptide
Experimental: as §1

human C3b = human C3b (human, UniProt P01024 23-667; P01024 749-1663, limits assumed); assay: cell-based or functional assay

| binding result (TSR5 peptide) | binding result (TSR6 peptide) | IC50 of inhibition of MAC (C5b-9) formation, LPS-coated wells, 10% normal human serum (human C3b) | Binder |
| --- | --- | --- | --- |
| no binding | no binding | – | MoAb^71-110 (antibody, V domains shown, Mouse monoclonal antibody from a hybridoma; also called MoAbB^71-110; anti properdin antibody clone MoAb^71-110) VH: QVLLQQSAPELARPGASVKMSCTASGYIFTNYPIHWVKQRPGQGLEWIGFIDPGGGYDEPDERFRDRATLTADKSSSTAYMQLSSLTSEDSAIYYCARRGGGYYLDYWGQDTTLTVSA VL: SIVMTQTPKFLLVSAGDRITITCKASQSVNNDVAWYQQKPGQSPKLLIYYASNRYTGVPDRFTGSGYGTDFTFTITTVKAEDLAVYFCQQDYSSPLTFGAGTKLELK |
| – | – | ~50 µg/mL | RYRRCVGWNG [Properdin peptide RYRRCVGWNG (99-108)] |
